Legend:
Assay in all cases: far-Western, overlay or dot blot; western blot: non-reduced lysate of P. falciparum NF54 iGP2 stage V gametocytes separated by SDS-PAGE, probed with 0.1 µg/mL antibodies for 1 h at RT; HRP anti-human IgG
Details in all cases: one partner purified
[1] = molecular target: D3-Fc (anti-Pfs48/45 nanobody D3 fused to hinge and Fc of human IgG1) (alpaca)
[2] = molecular target: D4-Fc (anti-Pfs48/45 nanobody D4 fused to hinge and Fc of human IgG1) (alpaca)
[3] = molecular target: F6-Fc (anti-Pfs48/45 nanobody F6 fused to hinge and Fc of human IgG1) (alpaca)
[4] = molecular target: G3-Fc (anti-Pfs48/45 nanobody G3 fused to hinge and Fc of human IgG1) (alpaca)
[5] = molecular target: H4-Fc (anti-Pfs48/45 nanobody H4 fused to hinge and Fc of human IgG1) (alpaca)
[6] = molecular target: A4-Fc (anti-Pfs48/45 nanobody A4 fused to hinge and Fc of human IgG1) (alpaca)
[7] = molecular target: B2-Fc (anti-Pfs48/45 nanobody B2 fused to hinge and Fc of human IgG1) (alpaca)
[8] = molecular target: C1-Fc (anti-Pfs48/45 nanobody C1 fused to hinge and Fc of human IgG1) (alpaca)
[9] = molecular target: C3-Fc (anti-Pfs48/45 nanobody C3 fused to hinge and Fc of human IgG1) (alpaca)
[10] = molecular target: C7-Fc (anti-Pfs48/45 nanobody C7 fused to hinge and Fc of human IgG1) (alpaca)

Measured: binding result

B1: Full-length Pfs48/45 from P. falciparum NF54 iGP2 stage V gametocytes (natural protein)
chain: NNDFCKPSSLNSEISGFIGYKCNFSNEGVHNLKPDMRERRSIFCTIHSYFIYDKIRLIIPKKSSSPEFKILPEKCFQKVYTDYENRVETDISELGLIEYEIEENDTNPNYNERTITISPFSPKDIEFFCFCDNTEKVISSIEGRSAMVHVRVLKYPHNILFTNLTNDLFTYLPKTYNESNFVSNVLEVELNDGELFVLACELINKKCFQEGKEKALYKSNKIIYHKNLTIFKAPFYVTSKDVNTECTCKFKNNNYKIVLKPKYEKKVIHGCNFSSNVSSKHTFTDSLDISLVDDSAHISCNVHLSEPKYNHLVGLNCPGDIIPDCFFQVYQPESEELEPSNIVYLDSQINIGDIEYYEDAEGDDKIKLFGIVGSIPKTTSFTCICKKDKKSAYMTVTID
binds: [1] | [2] | [3] | [4] | [5] | [6] | [7] | [8] | [9] | [10]
